{
  "source": "paper PMC4847155",
  "about": "(Biochemical Journal, 2016)",
  "target": "Bax (Homo sapiens, UniProt Q07812)",
  "sequence (Q07812 whole entry, the tested form may be a part)": "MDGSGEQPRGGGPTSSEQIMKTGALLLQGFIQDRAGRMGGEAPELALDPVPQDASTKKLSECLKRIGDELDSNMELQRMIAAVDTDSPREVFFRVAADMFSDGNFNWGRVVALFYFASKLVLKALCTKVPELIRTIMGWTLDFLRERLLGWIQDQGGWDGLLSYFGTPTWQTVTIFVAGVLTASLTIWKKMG",
  "assay_type": "biochemical",
  "details": "100 nM Bax, 10 μM compound or 20 nM cBid/Bim, no membranes, DSS",
  "data": [
    {"molecule": "cBid: known Bax activator protein, pro-apoptotic BH3 protein, recombinant (protein, UniProt P55957 61-195, looked up, BH3-interacting domain death agonist p15) BH3-interacting domain death …: GNRSSHSRLGRIEADSESQEDIIRNIARHLAQVGDSMDRSIPPGLVNGLALQLRNTSRSEEDRNRDLATALEQLLQAYPRDMEKEKTMLVLALLLAKKVASHTPSLLRDVFHTTVNFINQNLRTYVRSLARNGMD", "values": [
      {"measurement": "formation of dimers and higher-order Bax oligomers in solution", "value": "no effects"}
    ]}
  ]
}
